{
  "source": "patent US7414113B2",
  "about": "“Antibody that specifically binds to Candida kefyr Cytosine deaminase” (Onyx Pharmaceuticals, Inc., priority 2002, dated 2008)",
  "key": {"[1]": {"settings": "cell lysate, 37° C., 16 hour assay, FIG. 9; listed as C. kefyr CD protein", "quoted_text": "The reaction mixtures were loaded onto a TLC plate (LK5DF SILICA GEL, Cat. No. 4856-821, WHATMAN™) and resolved with 1-butanol:H2O (85:15) for 3 hours. The plate was then dried and visualized by autoradiography.\nCell lysates were assayed for cytosine to uracil conversion at 37° C. in a 16 hour assay."}, "[2]": {"system": "HEK 293 cells", "assay": "Expression of CD constructs, anti-FLAG Western blot of cell lysate", "format": "cell-based, Human", "settings": "transiently transfected HEK 293 cells", "description": "Human embryonic kidney cells (HEK 293 cells) were transiently transfected with one of these constructs: CK-CD-FLAG, CK-CD, E-CD-FLAG, E-CD or vector alone (pCMV-tag4C). […] Cells co-transfected with a construct and a GFP containing plasmid indicated approximately equivalent levels of transfection.\nThe experimental details are as follows: 293 cells in 10 cm dishes were transfected with 10 or 15 ÿg of CD constructs using FuGene® 6 (ROCHE™) at a DNA/FuGene® ratio of 1:3. No carrier DNA was used. Cell lysates were collected in 1 ml of lysis buffer (20 mM Tris-Cl, pH8, 150 mM NaCl, 1% Triton X-100) after 48 hours by three freeze/thaw cycles using dry ice for 10 minutes and room temperature for 10 minutes.\n30 μl of cell lysate was separated by 12% SDS-PAGE, transferred to membrane and then Western blotted with anti-flag monoclonal antibody at a dilution of 1:5000 (SIGMA™). The membranes were incubated with HRP conjugated goat-anti-mouse secondary antibody (1:10000, AMERSHAM™) and the signal visualized with an ECL system (AMERSHAM™). […] Similar results were obtained (not shown) when the cells were transfected with 2 μg of each DNA construct. Experiments are planned to test a humanized C. kefyr gene and it is expected that the humanized gene will improve the expression levels.\nBecause the bacterial protein was more strongly expressed than the yeast protein, an attempt was made to compare the levels for the amount of expression of the two clones. In a second Western blot, 30 μl of CK-CD-FLAG was compared against increasing amounts of E-CD-FLAG. […] In the following experiments, this ratio of cell lysates is used. The presence of a fainter band at about 38 KD may indicate that some portion of the CK-CD protein dimerizes."}, "[3]": {"assay": "5FC to 5FU conversion assay at different temperatures (14C, TLC)", "format": "biochemical", "settings": "for 5FC to 5FU conversion activity: cell lysate, 2 hour assay, FIG. 10", "procedure": "(§1) The plate was then dried and visualized by autoradiography.\nIn the next experiment, we tested the activity of each enzyme against 5FC. The experiment was performed as described above, but using 5FC in place of cytosine. Further, this experiment was combined with a temperature optimization study and was performed at 4 different temperatures. […] Further, a variant with increased stability can be isolated by screening yeast grown at 37° C., as described in the Examples below."}, "[4]": {"system": "transfected cells"}, "[5]": {"assay": "Activity of CD variants (conversion of 5FC to 5FU)", "format": "biochemical", "settings": "mutant tested, versus protein of SEQ ID NO: 2", "description": "“Fragments” refers to those polypeptides (or nucleic acid sequences encoding such polypeptides) retaining antigenicity, a structural domain, or an enzymatic activity of the full-length protein. The “enzymatic activity” of the CD protein is herein defined to be the conversion of 5FC to 5FU.\nas §1\nThe specific variants listed in table 2 are synthesized by site specific mutagenesis of SEQ ID NO: 1 or SEQ ID NO: 3. […] Further, changes within the cytidine and deoxycytidylate deaminase zinc-binding region (grey box) are also expected to be less well tolerated than changes outside this region. These residues involve a change in charge as compared with the closest homolog and are in the binding region. Changes in these residues are expected to change function. Active variants are likely to be those that involve conservative changes in those residues not conserved in the 2 yeasts, particularly those outside the binding region.\nVariants are expressed in E. coli and screened for activity using the assay described in example 3, or any suitable assay. Alternatively, random mutagenesis is performed and the products are similarly screened. In this manner, it will be possible to isolate variants with improved temperature stability at 37° C. and mutants with even better activity than that described herein."}, "[6]": {"settings": "reference 16, cited from earlier work"}, "[7]": {"settings": "cited from earlier work"}},
  "note": "“Also recorded” adds a separate entry of the source.",
  "data": [
    {"molecule": "CK-CD: Wild type Candida kefyr cytosine deaminase protein, 152 amino acids, SEQ ID NO: 2 (protein) MAEWDQKGMDKAYEEAAIGYKEGGVPIGGCLIDNLTGEILGSGHNMRFQKGSPTLHGETSTLENAGRLKGSVYKHCTMYTTLSPCDMCTGAILLYGIGRVVIGENVNFKSPGEEYLTSRGVELKVVDDKRCIDIMKEFIEKRPEDWYEDIGE", "values": [
      {"measurement": "cytosine to uracil conversion activity", "setting": "[1]", "value": "far less active against cytosine than was the E. coli CD protein"},
      {"measurement": "expression level", "setting": "[2]", "value": "significantly lower expression levels than E. coli CD"},
      {"measurement": "substrate preference, 5FC versus cytosine", "setting": "[3]", "value": "5FC is a better substrate for C. kefyr CD than is the natural substrate, cytosine"},
      {"measurement": "Activity % 5FU/5FC", "setting": "[3]; by 45 ul cell extract, 2 h", "value": "~50", "unit": "% by 45 ul"},
      {"measurement": "5FC to 5FU conversion activity", "setting": "[3]", "value": "much more active than CK-CD-FLAG; also recorded: more active against 5FC than the bacterial protein; also recorded: more active against 5FC than is the E. coli CD at 2 hours"},
      {"measurement": "5FC to 5FU conversion activity", "setting": "[3]; listed as C. kefyr CD", "value": "much higher in converting 5FC to 5FU"},
      {"measurement": "5FC to 5FU conversion activity", "setting": "[3]; listed as C. kefyr protein", "value": "sufficiently active at 37 °C"},
      {"measurement": "increased cytotoxicity and bystander effect per unit dose of 5FC compared with the bacteria", "setting": "[4]", "value": "up to 10 fold"}
    ]},
    {"molecule": "CK-CD-FLAG: Candida kefyr CD with FLAG tag, with the D33E variation (protein, C-terminal FLAG tag, Candida kefyr CD with FLAG tag, with the D33E variation) MAEWDQKGMDKAYEEAAIGYKEGGVPIGGCLIENLTGEILGSGHNMRFQKGSPTLHGETSTLENAGRLKGSVYKHCTMYTTLSPCDMCTGAILLYGIGRVVIGENVNFKSPGEEYLTSRGVELKVVDDKRCIDIMKEFIEKRPEDWYEDIGE", "values": [
      {"measurement": "expression level", "setting": "[2]", "value": "about ten-fold less well expressed than the E-CD-FLAG"},
      {"measurement": "5FC to 5FU conversion activity", "setting": "[3]", "value": "more active against 5FC than the bacterial protein"},
      {"measurement": "Activity", "setting": "[5]", "value": "Mutant tested and has less activity"}
    ]},
    {"molecule": "S. cerevisiae FCY1: Wild type Saccharomyces cerevisiae CD protein, 158 amino acids (protein) MVTGGMASKWDQKGMDIAYEEAALGYKEGGVPIGGCLINNKDGSVLGRGHNMRFQKGSATLHGEISTLENCGRLEGKVYKDTTLYTTLSPCDMCTGAIIMYGIPRCVVGENVNFKSKGEKYLQTRGHEVVVVDDERCKKIMKQFIDERPQDWFEDIGE", "values": [
      {"measurement": "Activity % 5FU/5FC by 0.2 μg CD in 2 h", "setting": "[6]", "value": "^1677.9 ± 6.2%"},
      {"measurement": "Km", "setting": "[6]", "value": 0.8, "unit": "mM"},
      {"measurement": "Vmax", "setting": "[6]", "value": "^1668.0 ± 12.0 μM/min/μg enzyme"},
      {"measurement": "T½", "setting": "[7]; measured, reference 16 (value in brackets)", "value": "(^161) HR"},
      {"measurement": "measured T1/2", "setting": "[7]; thermal instability, reference 16", "value": 1, "unit": "h"}
    ]},
    {"molecule": "E-CD-FLAG: E. coli cytosine deaminase with FLAG tag (protein, UniProt P25524 2-427, looked up, FLAG tag) Cytosine deaminase: SNNALQTIINARLPGEEGLWQIHLQDGKISAIDAQSGVMPITENSLDAEQGLVIPPFVEPHIHLDTTQTAGQPNWNQSGTLFEGIERWAERKALLTHDDVKQRAWQTLKWQIANGIQHVRTHVDVSDATLTALKAMLEVKQEVAPWIDLQIVAFPQEGILSYPNGEALLEEALRLGADVVGAIPHFEFTREYGVESLHKTFALAQKYDRLIDVHCDEIDDEQSRFVETVAALAHHEGMGARVTASHTTAMHSYNGAYTSRLFRLLKMSGINFVANPLVNIHLQGRFDTYPKRRGITRVKEMLESGINVCFGHDDVFDPWYPLGTANMLQVLHMGLHVCQLMGYGQINDGLNLITHHSARTLNLQDYGIAAGNSANLIILPAENGFDALRRQVPVRYSVRGGKVIASTQPAQTTVYLEQPEAIDYKR", "values": [
      {"measurement": "expression level", "setting": "[2]", "value": "much more strongly expressed than the yeast protein"},
      {"measurement": "expression level", "setting": "[2]; listed as E. coli CD-FLAG", "value": "expressed much more efficiently than Candida kefyr CD-FLAG"}
    ]},
    {"molecule": "E-CD: E. coli (bacterial) cytosine deaminase, 427 amino acids (protein, UniProt P25524 2-427, looked up) Cytosine deaminase: SNNALQTIINARLPGEEGLWQIHLQDGKISAIDAQSGVMPITENSLDAEQGLVIPPFVEPHIHLDTTQTAGQPNWNQSGTLFEGIERWAERKALLTHDDVKQRAWQTLKWQIANGIQHVRTHVDVSDATLTALKAMLEVKQEVAPWIDLQIVAFPQEGILSYPNGEALLEEALRLGADVVGAIPHFEFTREYGVESLHKTFALAQKYDRLIDVHCDEIDDEQSRFVETVAALAHHEGMGARVTASHTTAMHSYNGAYTSRLFRLLKMSGINFVANPLVNIHLQGRFDTYPKRRGITRVKEMLESGINVCFGHDDVFDPWYPLGTANMLQVLHMGLHVCQLMGYGQINDGLNLITHHSARTLNLQDYGIAAGNSANLIILPAENGFDALRRQVPVRYSVRGGKVIASTQPAQTTVYLEQPEAIDYKR", "values": [
      {"measurement": "Activity % 5FU/5FC by 0.2 μg CD in 2 h", "setting": "[6]", "value": "^1616.0 ± 0.8%"},
      {"measurement": "Km", "setting": "[6]", "value": 17.9, "unit": "mM"},
      {"measurement": "Vmax", "setting": "[6]", "value": "^1611.7 ± 3.8 μM/min/μg enzyme"},
      {"measurement": "5FU produced", "setting": "[3]; 16 hours of reaction (not shown)", "value": "as much or more 5FU than the yeast protein"}
    ]},
    {"molecule": "CD-FUR1 fusion protein: Fusion of Candida kefyr CD and uracil phosphoribosyltransferase (FUR1) (protein) MAEWDQKGMDKAYEEAAIGYKEGGVPIGGCLIDNLTGEILGSGHNMRFQKGSPTLHGETSTLENAGRLKGSVYKHCTMYTTLSPCDMCTGAILLYGIGRVVIGENVNFKSPGEEYLTSRGVELKVVDDKRCIDIMKEFIEKRPEDWYEDIGEASEPFKNVYLLPQTNQLLGLYTIIRNKNTTRPDFIFYSDRIIRLLVEEGLNHLPVQKQIVETDTNENFEGVSFMGKICGVSIVRAGESMEQGLRDCCRSVRIGKILIQRDEETALPKLFYEKLPEDISERYVFLLDPMLATGGSAIMATEVLIKRGVKPERIYFLNLICSKEGIEKYHAAFPEVRIVTGALDRGLDENKYLVPGLGDFGDRYYCV", "values": [
      {"measurement": "expected activity in cytotoxicity assay", "setting": "[4]", "value": "increased activity"}
    ]}
  ]
}
